Measurements from publication PMC8786727, “Oligomerization of the FliF Domains Suggests a Coordinated Assembly of the Bacterial Flagellum MS Ring” (Frontiers in Microbiology, 2021).

B1: S. Typhimurium FliF RBM1-RBM2-RBM3 (FliF_(50–438)) (domain or fragment)
chain: DYRTLFSNLSDQDGGAIVAQLTQMNIPYRFANGSGAIEVPADKVHELRLRLAQQGLPKGGAVGFELLDQEKFGISQFSEQVNYQRALEGELARTIETLGPVKSARVHLAMPKPSLFVREQKSPSASVTVTLEPGRALDEGQISAVVHLVSSAVAGLPPGNVTLVDQSGHLLTQSNTSGRDLNDAQLKFANDVESRIQRRIEAILSPIVGNGNVHAQVTAQLDFANKEQTEEHYSPNGDASKATLRSRQLNISEQVGAGYPGGVPGALSNQPAPPNEAPIATPPTNQQNAQNTPQTSTSTNSNSAGPRSTQRNETSNYEVDRTIRHTKMNVGDIERLSVAVVVNYKTLADGKPLPLTADQMKQIEDLTREAMGFSDKRGDTLNVVNSPFS
notes: FliF (flagellar M-ring protein), Salmonella enterica serovar Typhimurium, residues 50-438 (RBM1, RBM2 and RBM3, without the two trans-membrane helices); full length is 1-560; Synthetic gene in pET-28a; 33-fold symmetry seen in top-view cryo-EM 2D classes; the rings also stick together (~10 MDa by SEC-MALS); also called StFliF_(50–438); periplasmic region of FliF; source: E. coli BL21 DE3, …
B2: S. Typhimurium FliF RBM2 (FliF_(124–229)) (domain or fragment)
chain: SQFSEQVNYQRALEGELARTIETLGPVKSARVHLAMPKPSLFVREQKSPSASVTVTLEPGRALDEGQISAVVHLVSSAVAGLPPGNVTLVDQSGHLLTQSNTSGRD
notes: FliF, Salmonella enterica serovar Typhimurium, residues 124-229 (RBM2 and linker L2); Made by site-directed mutagenesis from the FliF 50-438 pET-28a construct; also called RBM2 + L2; source: E. coli BL21 DE3, purified (Ni-NTA, SEC on Superdex 200); copies: 23
B3: S. Typhimurium FliF RBM3 (FliF_(231–438)) (domain or fragment)
chain: NDAQLKFANDVESRIQRRIEAILSPIVGNGNVHAQVTAQLDFANKEQTEEHYSPNGDASKATLRSRQLNISEQVGAGYPGGVPGALSNQPAPPNEAPIATPPTNQQNAQNTPQTSTSTNSNSAGPRSTQRNETSNYEVDRTIRHTKMNVGDIERLSVAVVVNYKTLADGKPLPLTADQMKQIEDLTREAMGFSDKRGDTLNVVNSPFS
notes: FliF, Salmonella enterica serovar Typhimurium, residues 231-438 (RBM3); Made by site-directed mutagenesis from the FliF 50-438 pET-28a construct; Forms rings; the number of subunits of this construct was not measured; source: E. coli BL21 DE3, purified (Ni-NTA, SEC on Superose 6)

What was measured:
[1] = target: the molecule itself; experiment: cryo-EM 2D classification; protein at 10 mg/ml in 50 mM Hepes pH 9.0, 150 mM NaCl; symmetry read from top-view 2D classes; no 3D structure
[2] = target: the molecule itself; experiment: SEC; purified protein on Superdex 200 10/300 or Superose 6 10/300; 50 mM Hepes pH 8.0 or 9.0, 500 mM NaCl; oligomeric state from the elution volume

| Protein | stoichiometry N [1] | binding result [2] |
| --- | --- | --- |
| B1 | 33 |  |
| B2 | 23 |  |
| B3 |  | binds |
